# Experimental data from publication PMC4844702, “Selective inhibition of the kinase DYRK1A by targeting its folding process” (Nature Communications, 2016).
# Assays:
# Assay in all cases: co-IP; CDC37-nanoKAZ interaction assay: cleared lysates (HENG buffer, 50 mM HEPES-KOH pH 7.9, 150 mM NaCl, 20 mM Na2MoO4, 0.5% Triton X-100) of 293T cells added to 96-well plates coated with anti-FLAG M2, 4 °C for 3 h; luminescence of the captured CDC37-nanoKAZ normalized to the amount of captured 3xFLAG-DYRK1A; in some experiments cells were treated with FINDY or RD0392 for 24 h before lysis
# Conditions in all cases: partners not purified
# 3xFLAG-DYRK1A K188R = target: T1, 3xFLAG-DYRK1A K188R (human, UniProt Q13627 1-763, K188R)
# T1 construct: DYRK1A, the variant in which Ser529 corresponds to Ser520 of the other variant; As m2 with the substitution; also called K188R mutant; kinase-dead mutant; source: 293T cells, transiently transfected, in lysate
# 3xFLAG-DYRK1A Y321F = target: T2, 3xFLAG-DYRK1A Y321F (human, UniProt Q13627 1-763, Y321F)
# T2 construct: DYRK1A, the variant in which Ser529 corresponds to Ser520 of the other variant; As m2 with the substitution; also called Y321F mutant; source: 293T cells, transiently transfected, in lysate
# 3xFLAG-DYRK1A S97A = target: T3, 3xFLAG-DYRK1A S97A (human, UniProt Q13627 1-763, S97A)
# T3 construct: DYRK1A, the variant in which Ser529 corresponds to Ser520 of the other variant; As m2 with the substitution; also called S97A mutant; source: 293T cells, transiently transfected, in lysate
# [1] = target: T4, 3xFLAG-DYRK1A Y319F/Y321F (human, UniProt Q13627 1-763, Y319F | Y321F)
# T4 construct: DYRK1A, the variant in which Ser529 corresponds to Ser520 of the other variant; As m2 with the two substitutions; also called Y319F/Y321F mutant; Y321F/Y319F; source: 293T cells, transiently transfected, in lysate
binder,measurement,setting,value
"CDC37 fused with luciferase nanoKAZ (natural protein, UniProt Q16543 1-378, looked up, kinase-specific co-chaperone CDC37; also called CDC37-nanoKAZ; source: 293T cells stably expressing CDC37-nanoKAZ, in lysate) MVDYSVWDHIEVSDDEDETHPNIDTASLFRWRHQARVERMEQFQKEKEELDRGCRECKRKVAECQRKLKELEVAEGGKAELERLQAEAQQLRKEERSWEQKLEEMRKKEKSMPWNVDTLSKDGFSKSMVNTKPEKTEEDSEEVREQKHKTFVEKYEKQIKHFGMLRRWDDSQKYLSDNVHLVCEETANYLVIWCIDLEVEEKCALMEQVAHQTIVMQFILELAKSLKVDPRACFRQFFTKIKTADRQYMEGFNDELEAFKERVRGRAKLRIEKAMKEYEEEERKKRLGPGGLDPVEVYESLPEELQKCFDVKDVQMLQDAISKMDPTDAKYHMQRCIDSGLWVPNSKASEAKEGEEAGPGDPLLEAVPKTGDEKDVSV",fold change of luminescence relative to intact DYRK1A,3xFLAG-DYRK1A K188R,54 fold
same,fold change of luminescence relative to intact DYRK1A,3xFLAG-DYRK1A Y321F,5.2 fold
same,fold change of luminescence relative to intact DYRK1A,3xFLAG-DYRK1A S97A,2.2 fold
same,fold change of luminescence relative to intact DYRK1A,[1],6.2 fold
